Assay: label from the status in PepcDB records

| Sequence | protein production |
| --- | --- |
| METRAPFVIVGAFVLAAIFAVFGFVFWLHNTSGVGARTSYHVQFRDPVPGLLVGAAVLFNGIRVGEVTALALAPDDPRRVDATIAVAPSTPVRPDTKVGLDFQGLTGVPVVALEGGKQLSGSAIATTLVAEPGAGMSMTQAAREALRKVDSVLGENSGPLKDTIANFKTFSEWLAGKTEKLDGILGGVERMTGANEPVVKKVVYDLSAATGFPPPSPPLKGQLTIPESNTVVLFDSQKMLLAPGLEVPAFAGAQWSDSLPKMLQEKLIQSFENYDIAHAPMRPNDAVQPDYQLLTDIRSFQVIGEGDALRAEIAFSAKIIDKDGKLVAARLFQQASPLDKPEPAAAVSAFDKSFDTIAKELVPWAAQALASGRAEVEPAATTSRPITAPRSSGTTKGR | failed |
| GSAHSDEQSSGTLSSPGQSDILLTAAQGTVRKAGALAVKNFLVHKKNKKVESATRRKWKHYWVSLKGCTLFFYESDGRSGIDHNSIPKHAVWVENSIVQAVPEHPKKDFVFCLSNSLGDAFLFQTTSQTELENWITAIHSACATAVAR | failed |
| EGALPKASEATVCANNSKVSSPGEKVVLWTREADRVILTMCQEQGAQPHTFSVISQQLGNKTPVEVSHRFRELMQLFHTACE | not failed |
| PMEDEPTSKKLKTEDSLMPEEEFLRRNKGPVSIKVQVPNMQDKTEWKLNGQVLVFTLPLTDQVSVIKVKIHEATGMPAGKQKLQYEGIFIKDSNSLAYYNMANGAVIHLALKERGGRKK | failed |
| MAVECIKDKVTRYPERASYSDEDLVAMLDRNFTCTVSFIDGGIPYAIPMMLASEGKTIYLHGSMKSRIYGILKTGQLIAISLLEINGIVLAKEIKNNSINYVSALIFGRPYEIDDTEKKIEVFRLLTEKLVKGRRDNSIKPSYEDLNGVFVFAVKPETFSMKARTGPPHDTSTDDIWSGVLPIQHTISEAGENAPEYVKSLYGKRIFI | not failed |
| NAGFECGTEYLNFDEQPATMLDANLLSVEEGYPVTIIERLRTADGEPVVYCLDKIAKKELTCTEYQMSNGSILSAIKEQSNHNICYADTEIEAVNYEPRISEVLNASPHEGLILLKITHYNELDEPILYSLNYMKNSLVQ | failed |
| MIKLIATDIDGTLVKDGSLLIDPEYMSVIDRLIDKGIIFVVCSGRQFSSEFKLFAPIKHKLLYITDGGTVVRTPKEILKTYPMDEDIWKGMCRMVRDELPACDYFAATPDFCFAEDGGSPIFHLLRDSYGFEMREVDDITRLDRNDIIKFTVFHPDKCEELCTPVFIPAWNKKAHLAAAGKEWVDCNAKGVSKWTALSYLIDRFDLLPDEVCCFGDNLNDIEMLQNAGISYAVSNARQEVIAAAKHTCAPYWENGVLSVLKSFL | not failed |
| ERATPPVEPRQPPEAQPAERIVAERIVQELVRAGANLNNVRTMLRNVMDNNAVAFSRVEWNILLQHFPDMHTNGISSDSVLANELRQTLRQVVHQQRTQRALAPILSPAPSRPVASSSRSSQRTLLGRFTGWMAPRQTSSSSQAT | failed |
| MEITVIASSSIDEGIGSWDLKTGTEQLQFKPCASPAHGLTAVGEKFLASSQLSARNTSGSIFYWSWTKPQAEVKSYPVEPIKALAANNEGTYLVGGGISGDIYLWEVATGKLLKKWHGHYRSVTCLVFSGDDSLLVSGSQDGSIRVWSLIRLFDDFQRQQGNTLYEHNFNEHTMSVTDIVIDYGGCNAVIISSSEDRTCKVWSLSRGKLLKNIIFPSVINALALDPGGCVFYAGARDSKIYIGAINATSEYGTQVLGSVSEKGKAITCLAYCADGNLLISGSEDGVVCVWDPKSLRHVRTLIHAKGSRKGPVNNIQIVRKTIVANSNKTQVSWKSRGALIPPPLEKYERPVEDTMDGIVTVDPPPFSDVPVYSSFLSADLIDEQVKELQQQGSAATEMEMERLKLEYKRSLQMNEQWQKNYENLLQVVMEEEQIGGTN | failed |
| MPVNSILGVFAKSPIKPLQEHMDKVYDCASLLVPFFEATITGNWDDAVQIRKQISLAEKQGDSLKREIRLTLPSGLFMPVERTDLLELLTQQDKIANKAKDISGRVIGRQLLIPQALQVPFIAYLQRCIDAVGLAQQVINELDDLLEAGFRGREVDFVAKMINELDIIEEDTDDLQIQLRRQLFALESELNPVDVMFLYKTIEWVGGLADLAERVGSRLELMLARV | not failed |
| MLCARTDNHQGTGNVVTSAHMTRANDDDAGAAGIGAVAHMTTVDDNYTGHVERGKAARRFLPGATILKASVGPMDNNAYLVTCSATGETLLIDAANDAEVLIDLVRRYAPKLALIVTSHQHFDHWQALQAVAAATGAPTAAHPIDADPLPVKPDRLLTHGDSVRIGELTFDVIHLRGHTPGSIALALGGPVTGGVTQLFTGDCLFPGGVGKTWQPADFTQLLDDVTTRVFDVYADSTVIYPGHGDDTELGAERPSLSEWRARGW | failed |

From a protein production outcome set (Wang et al. 2014)
